Data taken from US20140315822A1.

Columns and labels:
[1] = target: T1, PDZ domain of the human PTPN4 protein (human), P29074; assay: method not restated in the table; ITC per paragraph 50
T1 chain: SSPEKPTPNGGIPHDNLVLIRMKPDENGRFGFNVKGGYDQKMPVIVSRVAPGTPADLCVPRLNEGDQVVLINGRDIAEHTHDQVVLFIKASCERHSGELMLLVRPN

[2] = target: T2, PDZ domain of the human MAST2 protein (human), Q6P0Q8
T2 chain: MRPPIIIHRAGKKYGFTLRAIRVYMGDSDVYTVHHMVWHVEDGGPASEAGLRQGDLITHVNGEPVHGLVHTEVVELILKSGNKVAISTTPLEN

Work on SWESHKSGGETRL (modifications not checked) [ATT13] yielded a Kd [1] of 160 µM and a Kd [2] of 0.57 µM.
